Data taken from US20180186871A1 (SINGAPORE HEALTH SERVICES PTE, published 2018).

biological target: T1, human IL-11 (human, UniProt P20809 22-199); assay: EC50 from the indirect ELISA titrations of FIGS. 28A-28F on plate-coated recombinant human IL-11 (five-parameter fit), ng/ml is the concentration unit of FIG. 28 and paragraph 502
T1 construct: In the ELISAs this is recombinant human IL-11 coated on the plate (expressed in CHO cells as Fc-tagged and tag-free versions); In the fibroblast assays it is the IL-11 produced by human fibroblasts after TGFβ1 stimulation; also called recombinant human IL-11 (GenScript Cat. No. Z03108-1); interleukin 11
T1 sequence (looked up): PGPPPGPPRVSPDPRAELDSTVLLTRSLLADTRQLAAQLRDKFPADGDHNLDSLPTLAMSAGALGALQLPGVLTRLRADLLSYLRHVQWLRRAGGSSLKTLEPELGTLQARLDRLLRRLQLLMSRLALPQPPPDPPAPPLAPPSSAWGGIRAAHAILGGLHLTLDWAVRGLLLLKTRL

| Binder | EC50 |
| --- | --- |
| YU45-G1 (Fc fusion, tested as scFv-Fc (human IgG1); also called #11) VH: EVQLLESGGGVVQPGRSLRLSCAASGFTFSSYGMHWVRQAPGKGLEWVAVISYDGSNKYYADSVKGRFTISRDNSKNTLYLQMNSLRAEDTAVYYCAKLSGPNGVDYWGQGTLVTVSS VL: QSALTQPRSVSGSPGQSVTISCTGTSSDVGGYNYVSWYQQHPGKAPKLMIYDVSKRPSGVPDRFSGSKSGNTASLTVSGLQAEDEADYYCCSYAGSYTFVFGGGTKLTVL | 0.0428 µg/mL |
| YU46-E3 (Fc fusion, not shown: a dimerising Fc or GST; small tags and cut ends, tested as scFv-Fc (human IgG1); also called #50) VH: QVQLVESGGGVVQPGRSLRLSCAASGFTFSSYGMHWVRQAPGKGLEWVAVISYDGSNKYYADSVKGRFTISRDNSKNTLYLQMNSLRAEDTAVYYCARIGGYDDFDYWGQGTLVTVSS VL: QSALTQPASVSGSPGQSITISCTGTSSDVGGYNYVSWYQQHPGKAPKLMIYDVSNRPSGVSNRFSGSKSGNTASLTISGLQAEDEADYYCSSYTSSSTWVFGGGTKLTVL | 0.707 µg/mL |
| YU45-B6 (Fc fusion, tested as scFv-Fc (human IgG1); also called #36) VH: not shown VL: QSALTQPRSVSGSPGQSVTISCTGTSRDVGGYNYVSWYQQHPGEAPKLMIFDVSKRPSGVPDRFSGSKSGNTASLTISGLQAEDEADYYCCSYADYYTWVFGGGTKVTVL | 4.98 µg/mL |
| YU45-A8/C6 (Fc fusion, tested as scFv-Fc (human IgG1); also called #27) VH: QVQLVESGGGVVQPGRSLRLSCAASGFTFSSYGMHWVRQAPGKGLEWVAVISYDGSNKYYADSVKGRFTISRDNSKNTLYLQMNSLRAEDTAVYYCAKLSGPNGVDYWGQGTLVTVSS VL: QSALTQPASVSGSPGQSITISCTGTSSDVGGYNYVSWYQQHPGKAPKLMIYDVGNRPSGVSNRFSGSKSGNTASLTISGLQAEDEADYYCSSYTSGSTWVFGGGTKLTVL | 0.71 µg/mL |

biological target: T1, human IL-11; assay: cell-based or functional assay

| Binder | MMP2 production (ng/ml), TGFB1-stimulated human atrial fibroblasts, Experiment 1 (NEG 42.7, POS 70.2) | MMP2 production (ng/ml), TGFB1-stimulated human atrial fibroblasts, Experiment 2 (NEG 36.2, POS 62.3) |
| --- | --- | --- |
| YU100-E05 (scFv) scFv: EVQLVQSGGGVVQPGRSLRLSCAASGFTFSSYGMHWVRQAPGKGLEWVAVISYDGSNKYYADSVKGRFTISRDNSKNTLYLQMNSLRAEDTAVYYCAKIGATDPLDYWGQGTLVTVSSGSASAPKLEEGEFSEARVQAVLTQPRSVSGSPGQSVTISCTGTSSDVGGYNYVSWYQQHPGKAPKLMIYDVSKRPSGVPDRFSGSKSGNTASLTISGLQAEDEADYYCCSYAGSYSWVFGGGTKLTVLGQPKAAPSVTLFPPSS | 56.3 ng/mL | 50.2 ng/mL |
| YU100-D05 (scFv) scFv: QVQLQQSGGGVVQPGRSLRLSCAASGFTFSSYGMHWVRQAPGKGLEWVAVISYDGSNKYYADSVKGRFTISRDNSKNTLYLQMNSLRAEDTAVYYCAKIGATDPLDYWGQGTLVTVSSGSASAPKLEEGEFSEARVQSALTQPASVSGSPGQLITISCTGTNSDVGGYNYVSWYQQHPGKAPKLMIYDVSNRPSGVSNRFSGSKSGNTASLTISGLQAEDEADYYCCSYAGSYTWVFGGGTKLTVLGQPKAAPSVTLFPPSS | 53.3 ng/mL | 48.8 ng/mL |
| YU100-E04 (scFv) scFv: QVQLQQSGGGVVQPGRSLRLSCAASGFTFSSYGMHWVRQAPGKGLEWVAVISYDGSNKYYADSVKGRFTISRDNSKNTLYLQMNSLRAEDTAVYYCAKIGATDPLDYWGQGTLVTVSSGSASAPKLEEGEFSEARVQSALTQPRSVSGSPGQSVTISCTGTSSDVGGYNYVSWYQQHPGKTPKLMIYDVTKRPSGVPDHFSGSKSGNTASLTISGLQAEDEADYYCCSYAGSHIWVFGGGTKLTVLGQPKAAPSVTLFPPSS | 50 ng/mL | 43.5 ng/mL |
| YU100-D02 (scFv) scFv: QVRLVQSGGGVVQPGRSLRLSCAASGFTFSSYGMHWVRQAPGKGLEWVAVISYDGSNKYYADSVKGRFTISRDNSKNTLYLQMNSLRAEDTAVYYCAKIGATDPLDYWGQGTLVTVSSGSASAPKLEEGEFSEARVQSALTQPRSVSGSPGQSVTISCTGTSGDVGTYNYVSWYQQHPGKAPKLMIFDVSKRPSGVPDRFSGSKSGNTASLTISGLQAEDEADYYCNSYAGSYTWVFGGGTKLTVLGQPKAAPSVTLFPPSS | 49.6 ng/mL | 42.2 ng/mL |
| YU100-D11 (scFv) scFv: QVQLVQSGGGVVQPGRSLRLSCAASGFTFSSYGMHWVRQAPGKGLEWVAVISYDGSNKYYADSVKGRFTISRDNSKNTLYLQMNSLRAEDTAVYYCAKIGATDPLDYWGQGTLVTVSSGSASAPKLEEGEFSEARVQSALTQPRSVSGSPGQSVTISCTGTSSNVGGYNYVSWYQQHPGKAPKLMIYDVSKRPSGVPDRFSGSKSGNTASLTISGLQAEDEANYYCASYAGNYNWVFGGGTKLTVLGQPKAAPSVTLFPPSS | 51.2 ng/mL | 47.2 ng/mL |
| YU100-A10 (scFv) scFv: EVQLVESGGGVVQPGRSLRLSCAASGFTFSSYGMHWVRQAPGKGLEWVAVISYDGSNKYYADSVKGRFTISRDNSKNTLYLQMNSLRAEDTAVYYCAKIGATDPLDYWGQGTLVTVSSGSASAPKLEEGEFSEARVLPVLTQPASVSGSPGQSITISCTGTSSDVGAYNYVSWYQQHPGKAPELMIYDVSNRPSGVSNRFSGSKSGNTASLTISGLQPEDEADYYCSSFTTSIAWVFGGGTKLTVL | 52.1 ng/mL | 50.1 ng/mL |
| YU100-E01 (scFv) scFv: QVQLQQSGGGVVQPGRSLRLSCAASGFTFSSYGMHWVRQAPGKGLEWVAVISYDGSNKYYADSVKGRFTISRDNSKNTLYLQMNSLRAEDTAVYYCAKIGATDPLDYWGQGTLVTVSSGSASAPKLEEGEFSEARVQSALTQPASVSGSPGQSITISCTGTSNDIGAYNYVSWYQQHPGKAPKLLIYDVNNRPSGVSDRFSGSKSGNTASLTISGLQAEDEADYYCCSYAGSYSWVFGGGTKLTVLGQPKANPTVTLFPPSS | 59.3 ng/mL | 51.8 ng/mL |
| YU112-H02 (scFv) scFv: QVQLVESGGGVVQPGRSLRLSCAASGFTFSSYGMHWVRQAPGKGLEWVAVISYDGSNKYYADSVKGRFTISRDNSKNTLYLQMNSLRAEDTAVYYCAKLSGPNGVDYWGQGTLVTVSSGSASAPKLEEGEFSEARVQPVLTQPRSVSGSPGQSVTISCTGTSSDVGGYNYVSWYQQHPGKAPKVMIYDVSKRPSGVPDRFSGSKSGNTASLTISGLQAEDEADYYCCSYAGSYTWVFGGGTKLTVL | 65.3 ng/mL | 58 ng/mL |
| YU112-H01 (scFv) scFv: QVQLVESGGGVVQPGRSLRLSCAASGFTFGSYGMHWVRQAPGKGLEWVAVISYDGSNKYYADSVKGRFTISRDNSKNTLYLQMNSLRAEDTAVYYCAKGSYYFDYWGQGTLVTVSSGSASAPKLEEGEFSEARVETTLTQSPGTLSLSPGERATLSCRASQSVSSSYLAWYQQKPGQAPRLLIYGASSRATGIPDRFSGSGSGTDFTLTISSLQPDDFATYYCQQSYSTPTWTFGQGTKVEIK | 51.9 ng/mL | 47.7 ng/mL |
| YU100-E06 (scFv) scFv: QVQLVESGGGVVQPGRSLRLSCAASGFTFSSYGMHWVRQAPGKGLEWVAVISYDGSNKYYADSVKGRFTISRDNSKNTLYLQMNSLRAEDTAVYYCAKIGATDPLDYWGQGTLVTVSSGSASAPKLEEGEFSEARVQSALTQPASVSGFPEQSITISCTGTSSDVGGYDYVSWYQQHPGKAPKLMIYDVTNRPSGVSNRFSGSKSGNTASLTISGLQPEDEADYYCSSYTSNTTWVFGGGTKLTVLRQPKAAPSVTLFPPSS | 54.1 ng/mL | 48.2 ng/mL |
| YU112-E07 (scFv) scFv: QVQLVQSGGGVVQPGRSLRLSCAASGFTFGSYGMHWVRQAPGKGLEWVAVISYDGSNKYYADSVKGRFTISRDNSKNTLYLQMNSLRAEDTAVYYCAKGSYYFDYWGQGTLVTVSSGSASAPKLEEGEFSEARVEIVMTQSPDSLAVSLGERATINCKSSQSVNSAYLAWYQHKPGQPPRLLIYGASRRVTGVPDRFSGSGSGTDFTLTISSLQPEDFATYYCQQSYSDPRWTFGQGTKVEIK | 53.5 ng/mL | 49.1 ng/mL |
| YU100-B08 (scFv) scFv: EVQLVQSGGGVVQPGRSLRLSCAASGFTFSSYGMHWVRQAPGKGLEWVAVISYDGSNKYYADSVKGRFTISRDNSKNTLYLQMNSLRAEDTAVYYCAKIGATDPLDYWGQGTLVTVSSGSASAPKLEEGEFSEARVQSALTQPASVSGSPGQSITISCTGTSSDVGGYNYVSWYQQHPGKVPRLLIYDVSNRPSGVSTRFSGSKSGNTASLTISGLQGEDEAEYYCSSFTSSTTWVFGGGTKLTVL | 55.3 ng/mL | 40.6 ng/mL |
